According to article PMC2678197 (2009):
Where no end group is shown, it is not given here. [ ]: non-standard residue; d: D form. sY = N[C@@H](Cc1ccc(OS(=O)(=O)O)cc1)C(=O)O

Assays:
Assay in all cases: NMR
CCR3 peptide Su0 8-23 = target: T1, CCR3 peptide Su0 8-23 (Homo sapiens, UniProt P51677)
T1 chain: VETFGTTSYYDDVGLL

CCR3 peptide Su17 8-23 = target: T2, CCR3 peptide Su17 8-23 (Homo sapiens, UniProt P51677)
T2 chain: VETFGTTSY[sY]DDVGLL

CCR3 peptide Su16 8-23 = target: T3, CCR3 peptide Su16 8-23 (Homo sapiens, UniProt P51677)
T3 chain: VETFGTTS[sY]YDDVGLL

Kd (CCR3 peptide Su0 8-23): 140 µM | Kd (CCR3 peptide Su17 8-23): 22 µM | Kd (CCR3 peptide Su16 8-23): < 5 µM
B1: eotaxin (protein)
chain: not shown
